B1: TRIM39 (parent)
chain: ERDFPCPVCRKTSRYRSLRPNRQL
B2: FBF1 (parent)
chain: QLQCSPAELQAELLHSQARLAELE

Variants of: B1
Assay: protein stability index of a GFP-peptide fusion (GPS, HEK-293T) (PSI 1-6); higher = more stable
Conditions: c terminus: a fixed tail appended
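Further: lentivirally expressed fusions sorted by FACS into six bins by GFP to DsRed ratio, PSI derived from sequencing read proportions per bin multiplied by bin number.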

Row | Variant | protein stability index
1 | L18E | 2.1
2 | L18S | 2.42
3 | L18M | 1.82
4 | L18P | 2.89
5 | L18Q | 2.39
6 | L18F | 2.39
7 | L18G | 2.34
8 | L18Y | 1.96
9 | L18D | 2.71
10 | L18N | 2.41
11 | L18W | 2.26
12 | L18A | 2.32
13 | L18H | 2.68
14 | L18C | 2.24
15 | L18I | 1.81
16 | L18R | 2.87
17 | L18V | 2.49
18 | L18T | 3.13
19 | P20I | 1.6
20 | P20Q | 2.17
21 | P20K | 2.58
22 | P20Y | 1.84
23 | P20E | 2.04

Row | Variant | protein stability index
24 | P20W | 1.84
25 | P20N | 1.77
26 | P20V | 2.07
27 | P20R | 4.09
28 | P20S | 1.76
29 | P20A | 2.22
30 | P20D | 2.06
31 | P20L | 1.75
32 | P20F | 3.1
33 | P20H | 1.87
34 | P20C | 2.44
35 | P20M | 3.02
36 | P20T | 2.13
37 | S13W | 2.39
38 | S13R | 2.49
39 | S13Q | 2.1
40 | S13V | 2.1
41 | R14E | 3.71
42 | R14T | 1.58
43 | R14Q | 2
44 | R14C | 2.85
45 | R14I | 2.28
46 | R14G | 2.13

Row | Variant | protein stability index
47 | R14V | 1.39
48 | R14F | 1.96
49 | R14P | 1.82
50 | R14K | 1.9
51 | R14D | 2.08
52 | R14L | 2.09
53 | R14N | 1.67
54 | R14Y | 2.42
55 | R14S | 1.66
56 | R14H | 2.15
57 | R14M | 1.92
58 | R14A | 2.46
59 | Y15N | 2.31
60 | Y15I | 2.24
61 | Y15V | 1.64
62 | Y15D | 3.02
63 | Y15M | 1.54
64 | Y15C | 2.24
65 | Y15T | 1.9
66 | Y15Q | 2.52
67 | Y15F | 2.31
68 | Y15G | 1.83
69 | Y15W | 1.95

Row | Variant | protein stability index
70 | Y15E | 2.19
71 | Y15P | 2.29
72 | Y15R | 2.65
73 | Y15H | 2.68
74 | Y15K | 3.33
75 | R16I | 1.24
76 | R16A | 1.43
77 | R16K | 2.14
78 | R16V | 2.04
79 | R16H | 2.29
80 | R16F | 2.57
81 | R16C | 2.47
82 | R16N | 2.23
83 | R16S | 2.86
84 | R16Y | 1.74
85 | R16G | 1.29
86 | R16Q | 1.91
87 | R16P | 2.1
88 | R16M | 1.03
89 | R16L | 1.53
90 | R16E | 2.54
91 | R22K | 2.66
92 | R22N | 1.6

Row | Variant | protein stability index
93 | R22T | 2.04
94 | R22M | 2.86
95 | R22E | 2.4
96 | R22S | 1.5
97 | R22I | 1.93
98 | R22D | 2.37
99 | R22G | 2.17
100 | R22V | 1.76
101 | R22H | 1.56
102 | R22Y | 2.23
103 | R22F | 1.79
104 | R22Q | 1.95
105 | R22L | 1.83
106 | R22A | 3.44
107 | L24F | 2.04
108 | L24P | 3.2
109 | L24R | 3.37
110 | L24N | 2.41
111 | L24T | 2.51
112 | L24Q | 3.08
113 | L24I | 1.85
114 | L24W | 1.36
115 | L24A | 1.81

Row | Variant | protein stability index
116 | L24V | 2.19
117 | L24D | 1.75
118 | L24C | 3.12
119 | L24G | 2.06
120 | L24S | 3.32
121 | L24H | 2.82
122 | N21P | 2.12
123 | N21H | 1.77
124 | N21W | 2.53
125 | N21M | 2.74
126 | N21R | 2.96
127 | N21E | 1.71
128 | N21D | 2.12
129 | N21Q | 1.62
130 | N21K | 2.78
131 | N21S | 1.91
132 | N21Y | 2.52
133 | N21I | 1.85
134 | N21F | 2.6
135 | N21V | 1.9
136 | S17G | 2.15
137 | S17Q | 1.86
138 | S17C | 1.71

Row | Variant | protein stability index
139 | S17K | 2.25
140 | S17N | 2.22
141 | S17V | 2.24
142 | S17D | 1.85
143 | S17P | 2.71
144 | S17R | 2.31
145 | S17T | 1.45
146 | S17H | 1.89
147 | S17L | 1.69
148 | S17W | 2.31
149 | S17Y | 1.44
150 | S17E | 2.13
151 | Q23I | 1.68
152 | Q23L | 1.87
153 | Q23Y | 1.66
154 | Q23P | 1.47
155 | Q23S | 2.17
156 | Q23F | 1.67
157 | Q23H | 3.18
158 | Q23M | 2.27
159 | Q23T | 2.9
160 | Q23R | 1.71
161 | Q23C | 1.8

Row | Variant | protein stability index
162 | Q23K | 1.92
163 | Q23W | 2.26
164 | Q23D | 2.34
165 | Q23N | 2.77
166 | Q23G | 2.46
167 | Q23A | 1.33
168 | R19H | 2.08
169 | R19I | 2.1
170 | R19V | 1.85
171 | R19E | 1.59
172 | R19K | 1.82
173 | R19Q | 1.91
174 | R19T | 1.75
175 | R19L | 2
176 | R19W | 2.1
177 | R19M | 1.29
178 | R19Y | 2.12
179 | R19S | 2.58
180 | R19N | 1.78
181 | R19A | 1.63
182 | R19P | 1.98
183 | R19D | 1.54
184 | R19G | 1.89

Variants of: B2
Assay: as above
Conditions: c terminus: a fixed tail appended

Row | Variant | protein stability index
185 | L2Y | 3.35
186 | L2C | 2.42
187 | L2N | 3.52
188 | L2A | 3.02
189 | L2P | 4.15
190 | L2H | 3.21
191 | L2R | 2.59
192 | L2K | 2.89
193 | L2E | 4.46
194 | L2V | 3.68
195 | L2Q | 3.85
196 | L2S | 3.96
197 | L2T | 2.94
198 | L2D | 3.65
199 | L2F | 2.83
200 | L2I | 2.82
201 | L2G | 3.38
202 | L2W | 2.75
203 | L2M | 3.61
204 | S5E | 3.25
205 | S5V | 3.03
206 | S5I | 3.25
207 | S5C | 3.03
208 | S5K | 3.23
209 | S5H | 3.01

Row | Variant | protein stability index
210 | S5A | 3.48
211 | S5N | 2.94
212 | S5F | 2.87
213 | S5R | 2.66
214 | S5Q | 3.69
215 | S5G | 2.79
216 | S5M | 3.23
217 | S5Y | 3.01
218 | S5P | 3.67
219 | S5L | 3.13
220 | S5T | 3.85
221 | S5D | 2.74
222 | S5W | 2.64
223 | C4E | 4.39
224 | C4H | 3.15
225 | C4P | 3.65
226 | C4R | 3.94
227 | C4F | 3.14
228 | C4S | 3.82
229 | C4T | 3.49
230 | C4L | 3.92
231 | C4M | 3.82
232 | C4K | 4.23
233 | C4N | 3.26
234 | C4G | 3.32

Row | Variant | protein stability index
235 | C4I | 2.93
236 | C4Q | 3.92
237 | C4D | 4.22
238 | C4W | 2.82
239 | C4A | 3.99
240 | C4V | 2.96
241 | C4Y | 3.77
242 | Q1L | 2.62
243 | Q1E | 3.2
244 | Q1W | 2.8
245 | Q1I | 2.82
246 | Q1D | 3.2
247 | Q1P | 3.91
248 | Q1K | 2.69
249 | Q1G | 2.77
250 | Q1S | 3.31
251 | Q1A | 2.89
252 | Q1Y | 2.6
253 | Q1M | 2.64
254 | Q1H | 3.26
255 | Q1C | 2.91
256 | Q1F | 2.06
257 | Q1V | 2.41
258 | Q1T | 3.33
259 | Q1N | 2.82

Row | Variant | protein stability index
260 | Q1R | 2.59
261 | E8A | 1.66
262 | E8T | 2.41
263 | E8Q | 2.67
264 | E8V | 2.18
265 | E8R | 2.33
266 | E8H | 2.48
267 | E8D | 2.55
268 | E8G | 2.76
269 | E8K | 2.79
270 | E8F | 2.13
271 | E8C | 1.72
272 | E8S | 2.17
273 | E8M | 2.06
274 | E8L | 2.27
275 | E8P | 3.86
276 | E8N | 2.84
277 | E8I | 2.28
278 | P6V | 2.44
279 | P6E | 2.6
280 | P6W | 2.51
281 | P6T | 3.66
282 | P6Y | 2.14
283 | P6N | 3.47
284 | P6S | 3.26

Row | Variant | protein stability index
285 | P6C | 2.17
286 | P6G | 2.24
287 | P6A | 2.85
288 | P6M | 2.31
289 | P6Q | 2.84
290 | P6F | 2.28
291 | P6H | 2.19
292 | P6R | 3.1
293 | P6L | 2.43
294 | P6K | 4
295 | P6D | 3.56
296 | P6I | 2.44
297 | A7P | 3.79
298 | A7L | 2.37
299 | A7S | 3.62
300 | A7N | 3.39
301 | A7F | 2.57
302 | A7E | 3.4
303 | A7W | 2.92
304 | A7H | 2.57
305 | A7C | 2.74
306 | A7V | 3.07
307 | A7T | 2.78
308 | A7Q | 3.27
309 | A7G | 2.52

Row | Variant | protein stability index
310 | A7D | 3.66
311 | A7K | 2.9
312 | A7M | 2.36
313 | A7Y | 1.82
314 | A7R | 3.06
315 | A7I | 2.94
316 | Q3I | 2.69
317 | Q3E | 3.54
318 | Q3C | 2.53
319 | Q3V | 3.1
320 | Q3P | 3.01
321 | Q3L | 3.35
322 | Q3N | 2.81
323 | Q3W | 2.62
324 | Q3M | 2.59
325 | Q3Y | 2.12
326 | Q3K | 2.19
327 | Q3S | 3.53
328 | Q3R | 3.21
329 | Q3G | 3.25
330 | Q3D | 3.1
331 | Q3H | 2.6
332 | Q3T | 3.48
333 | Q3F | 2.11
334 | Q3A | 3.13
